{"source": "the DeepSol protein solubility set", "data": [{"test": "soluble on expression in E. coli; label from the status in PepcDB or PDB records", "values": [{"sequence": "MGSDKIHHHHHHVSTAVSTPPTRLQCPICGSERFGDFRSRVNVRCSGCGSFERSRLLWLVLSQLELEATGRPFFHVAPEIGIAKLLHARLGERYRAFDFSPDIYAKAKIPVGRLDLCSDLSGMATGSVGGFCHVHVLEHVRCNAALVLQQINRVLAPGGYHVFGVPFWSRQYREDLSSELTDADRLSRFGHEDHVRSFGDQDFTVMFGGAFEGMEAIPLSRLIEVEAAARCNIPPRALTLNNSHSLFVYRKPIP", "soluble on expression in E. coli": "not soluble"}, {"sequence": "MGSDKIHHHHHHVYRKIKAQDLRPGMYVVDVGLSWLENPYLYMTEGVLADEEAVGRVLSEGYEEAVIDLRRCLEGSVPDDLAELEPLTDAEHVSRAVSATADSPVSAVAQRVPVAQEMLAAKAIYSESITFVRGFMEGAREGRPVDLKAAEPLVEDIIQSVSRNAGALIGFAKLRAYDLYTYTHSLNVSLLAVAFGKYLGLDTVALRQIGLAGLFHDLGKALIPDFILNCPGRLTPEEFSVMKRHPVLGRDVLPGGGRIPDMVLEGMLQHHEKFNGTGYPAGLKGDAISEAGRIIAVVDVYDALTSKRPYKNAMLPNKALSILYSMAGEEFYPGYVEHFIKCIGIYPVGQIVRLNTGQVGVVSATDPAVPLRPEVIVVRDPLGRPAPPRLIRLADVISVSVTETLEAAHAGIDAARVLQDGAAS", "soluble on expression in E. coli": "not soluble"}, {"sequence": "MGSDKIHHHHHHYATPEEYYKATGKKITEYHESPMLTKLVEEGKLPPVEQRLPEEPLVVQPVEKVGQFGGTWRRVWKGPSDRWGISKLIEVKLAFWDKEGGKLVPGLAKSWEVLENGRVYIFHLRKGVKWSDGAPYTAHDIVFWVNDIVGNDDITPSKPDWYNIGVKVEALDDYTVKFEFSKPYGLFLLKVPYGGFTGAPAHYLKQFHPKYTPMEEIEKKMVEGVHNTWVDLFNDKNDFLENTELPTLSPWKPITDPTEQFYILERNPYFWAVDIEGNQLPYIDYVRHEYVKNDEVILLKAISGEIDMQWRHIGGLGAGAGNFTLLMENSQSGGYRVLKWIAANGSASRISLNYAHSDEVLRKVFNDVRFRQALSLAINREEINEILFNGLAEPRQASLVSGSPYFDPEWEKAYAEYDPDRANKLLDEMGLKWDDKHEYRLLPDGRPLRFTITVTGQFHVDVWTMVKEYWKQIGVWVEIENLERSLFYERADAGDFDAMVWNMDRAAQPLSSPMVIFPGSENIADFWYIGWSGWISYYIDKNIRGVEPEEVPEGPEPPEVVYRLVDLYYQIASTPDPDKIKELMAEATKIHRENLWMIGTVGEDLSPAIAKNNFRNVPEFLVTDDVLRTPLNAMPMQFFIEQK", "soluble on expression in E. coli": "not soluble"}, {"sequence": "MGSDKIHHHHHHYKDLSQLKSEVDRLCRLCPWDWTFFNGNCYFFSKSQRDWHDSMTACKEMGAQLVIIKSHEEQSFLQQTSKKNSYTWMGLSDLNKEGEWYWLDGSPLSDSFEKYWKKGQPNNVGGQDCVEFRDNGWNDAKCEQRKFWICKKIATTCLS", "soluble on expression in E. coli": "not soluble"}, {"sequence": "MGSLDLPYASSFKGGSETFLQNVFESILKTYLRKNPMAKTIWELVKSVDNEKISYDHFFFRTFKVDGYGIDSLASFFMDYGYKVGGRLDFPKKKVQVLWLSPPDVHFPDNGYGIGNGPLPRLVIAELLVEELSPESQEIIRKYLKPEGGKQAVLSSTLGSLIWEKPTSTDFNQLAKESEFAAWTLVYGYTMNHLAFAVHRLKHRFSDIKCVKEYFEENGFELNKDGGVLKVSEDSLLLQVSAMSEKLVVEFADGVTQIVPASYIEFVERLVLPQFKDMPCDEIKEFHRREGLEQASAYHIMESTRFTA", "soluble on expression in E. coli": "soluble"}, {"sequence": "MGSLRLTERPHVRKARLWVKLSDGKEGWVRCDLCQRRCVIAPGKYGACGVRKNIGGELYTLVYGLLSASNIDPIEKKPLLHFYPGSTVLSISTVGCNFFCQFCQNFEISQSRLEKGLYGVYRTPEEVVRLALVYGADGITYTYNEPTIFFETVYDVAKEAKKHGLFNTMVTNGYMTPEAVDELGSLIDAATVDFKGGGDPEFYRKIMFVPDPEPIYEAILAMKDKGWWIEITNLVVPILGDKPEYVRRMARWIVENLGPEVPFHLLRFHPDYKLRHVPHTPVKTLEKLARIAMEEGLKHVYIGNVWGHPLEDTYCPKCGYKVVDREGFAIVEWRLTSDFRCPRCGYKLNFRGEYTPRNINYPMPVM", "soluble on expression in E. coli": "not soluble"}, {"sequence": "MGSNELFTRSVYMQSSVYSNNSKSSTSSSSSNSIPTQSAPAMNAASSPSKEPAKQEKEDDKKEVEEKKEIEKSVEAKVEGKVKAKVESTQNTDNSQELKAPEEKPKKKKKKKSNLIVSASVEKLSIVPEKEDFSILEKKLREFNFYHGFLPREDLHTTLHNPGDFLLRVSEVVEGEHKVNREVILSLIPVSTVSKDEEDRKKVRNVVIKRVTNLFFCEITRTFESISDLVTYYTKNPGGCASGTFQLKHPILQQSWEFMHSDVTVGKVLGEGAFGKVCSGTLKLKDGTNVDVAIKMTKVSAFLSKMKIKEMMNEARFIRNFNHKNVVRLYGVAHHEQPLYILLELVKGGSLQDHMKKEKGAVSIVEKIKFCSGAGRGIEYLHQNNCIHRDIAARNCLLHEKEVKITDFGLSRTGPVYKMKTACKLPVKWLAPETLSTLSFSFATDTYSWGVTCYEVFADGVEPFFGIQNSVVKTDILANKFLQMPPTTPESIKKYMEASIFVEGSRRATMTSAIAEFEKIKSALERPPSDMLSVGAGAKKVMKLLKRNKQEKYSKGD", "soluble on expression in E. coli": "not soluble"}, {"sequence": "MGSQKRLVQRVERKLEQTVGDAFARIFGGSIVPQEVEALLRREAADGIQSLQGNRLLAPNEYIITLGVHDFEKLGADPELKSTGFARDLADYIQEQGWQTYGDVVVRFEQSSNLHTGQFRARGTVNPDVETHPPVIDCARPQSNHAFGAEPGVAPMSDNSSYRGGQGQGRPDEYYDDRYARPQEDPRGGPDPQGGSDPRGGYPPETGGYPPQPGYPRPRHPDQGDYPEQIGYPDQGGYPEQRGYPEQRGYPDQRGYQDQGRGYPDQGQGGYPPPYEQRPPVSPGPAAGYGAPGYDQGYRQSGGYGPSPGGGQPGYGGYGEYGRGPARHEEGSYVPSGPPGPPEQRPAYPDQGGYDQGYQQGATTYGRQDYGGGADYTRYTESPRVPGYAPQGGGYAEPAGRDYDYGQSGAPDYGQPAPGGYSGYGQGGYGSAGTSVTLQLDDGSGRTYQLREGSNIIGRGQDAQFRLPDTGVSRRHLEIRWDGQVALLADLNSTNGTTVNNAPVQEWQLADGDVIRLGHSEIIVRMH", "soluble on expression in E. coli": "soluble"}, {"sequence": "MGSSHHHHHHGKTIFVIVPTNEEQVAFLEALAKQDELNFDWQNPPTEPGQPVVILIPSDMVEWFLEMLKAKGIPFTVYVEEGGSENLYFQGGGGGGRRGFTETVSPVAGFHIFTLFLLRELIEPWSQGQVRAQAARAREAQRRSFTTDIAMQYREKLD", "soluble on expression in E. coli": "soluble"}, {"sequence": "MGSSHHHHHHMTLNQPEYFTKYENLHFHRDENGILEVRMHTNGSSLVFTGKTHREFPDAFYDISRDRDNRVVILTGSGDAWMAEIDFPSLGDVTNPREWDKTYWEGKKVLQNLLDIEVPVISAVNGAALLHSEYILTTDIILASENTVFQDMPHLNAGIVPGDGVHILWPLALGLYRGRYFLFTQEKLTAQQAYELNVVHEVLPQSKLMERAWEIARTLAKQPTLNLRYTRVALTQRLKRLVNEGIGYGLALEGITATDLRNN", "soluble on expression in E. coli": "soluble"}, {"sequence": "MGSSHHHHHHSSGLEVLFQGPHMETAIWIKNSKLPAVLVAAGAFDAAVQALSKQVGVVKLEPLKKYFTNIYEGCRTYIPSTPCELPAQLGYVRAYDDTVSEDQILPYVPGLDVVNEKMNEGYKNFKLNKPDIAIECFREAIYRITLLMVDDAEDEKLAHKILETAREYILGLSIELERRSLKEGNTVRMLELAAYFTKAKLSPIHRTNALQVAMSQHFKHKNFLQASYFAGEFLKIISSGPRAEQARKIKNKADSMASDAIPIDFDPYAKFDICAATYKPIYEDTPSVSDPLTGSKYVITEKDKIDRIAMISKIGAPASGLRIRV", "soluble on expression in E. coli": "soluble"}, {"sequence": "MGSSHHHHHHSSGLVPRGSHMKRSSPVILVSEDEYGKFDESTNSILVKGKMHHLGISRVIEPGDELIVSGKSFIVSDFSPMYFGRVIRRNTQIISEIDASYIIMRCGLRPGMDILEVGVGSGNMSSYILYALNGKGTLTVVERDEDNLKKAMDNLSEFYDIGNVRTSRSDIADFISDQMYDAVIADIPDPWNHVQKIASMMKPGSVATFYLPNFDQSEKTVLSLSASGMHHLETVELMKRRILVREGATRPASDDLTHTAFITFAIKKSGMVYRI", "soluble on expression in E. coli": "soluble"}, {"sequence": "MGSSHHHHHHSSGLVPRGSHMSVRSLPAALRACARLQPHDPAFTFMDYEQDWDGVAITLTWSQLYRRTLNVAQELSRCGSTGDRVVISAPQGLEYVVAFLGALQAGRIAVPLSVPQGGVTDERSDSVLSDSSPVAILTTSSAVDDVVQHVARRPGESPPSIIEVDLLDLDAPNGYTFKEDEYPSTAYLQYTSGSTRTPAGVVMSHQNVRVNFEQLMSGYFADTDGIPPPNSALVSWLPFYHDMGLVIGICAPILGGYPAVLTSPVSFLQRPARWMHLMASDFHAFSAAPNFAFELAARRTTDDDMAGRDLGNILTILSGSERVQAATIKRFADRFARFNLQERVIRPSYGLAEATVYVATSKPGQPPETVDFDTESLSAGHAKPCAGGGATSLISYMLPRSPIVRIVDSDTCIECPDGTVGEIWVHGDNVANGYWQKPDESERTFGGKIVTPSPGTPEGPWLRTGDSGFVTDGKMFIIGR", "soluble on expression in E. coli": "soluble"}, {"sequence": "MGSSHHHHHHSSGLVPRGSQSTSLYKKAGLMISAGDFKNGVTFELDGQIFQVIEFQHVKPGKGAAFVRTKLKNIVTGATIEKTFNPTDKMPKAHIERKDMQYLYNDGDLYYFMDTETFEQLPLGKDKIGDALKFVKENEIVKVLSHKGNVFGIEPPNFVELEVTDTEPGFKGDTATGATKPAIVETGASIKVPLFVNKGDIIRIDTRTGEYMERV", "soluble on expression in E. coli": "soluble"}, {"sequence": "MGSSHHHHHHSSGRENLYFQGHMASQLTDAFARKFYYLRLSITDVCNFRCTYCLPDGYKPSGVTNKGFLTVDEIRRVTRAFARLGTEKVRLTGGEPSLRRDFTDIIAAVRENDAIRQIAVTTNGYRLERDVASWRDAGLTGINVSVDSLDARQFHAITGQDKFNQVMAGIDAAFEAGFEKVKVNTVLMRDVNHHQLDTFLNWIQHRPIQLRFIELMETGEGSELFRKHHISGQVLRDELLRRGWIHQLRQRSDGPAQVFCHPDYAGEIGLIMPYEKDFCATCNRLRVSSIGKLHLCLFGEGGVNLRDLLEDDTQQQALEARISAALREKKQTHFLHQNNTGITQNLSYIGG", "soluble on expression in E. coli": "soluble"}, {"sequence": "MGSSHHHHHHSSGRENLYFQGHMHALSPLALAALIVATAPAFADEAKKPGTVFKDCKDCPEMVVLPAGSFTMGTPDDEVGRQPDEGPLHDVTFAKPFAISRYQVTAGELDAYLKATGVKLADGDTRPGRECIAGKPRYQQGPRQPAVCVDYNDVKNYAAWLSKKTGKRYRMLSEAEREYGARAGSAGPFPFPFDEGKEYSIAKHANTYGASDGYNFTSPVGSFPPNAFGVYDMHGNVYEWVADCWHDHYNGAPSDGSAWMEEKCELVQIRGNDWGEPPIFSRSGNRNNAAPSDRGDWIGFRVAREL", "soluble on expression in E. coli": "soluble"}, {"sequence": "MGSSHHHHHHSSGRENLYFQGHMKPDAHQVKQFLLNLQDTICQQLTAVDGAEFVEDSWQREAGGGGRSRVLRNGGVFEQAGVNFSHVHGEAMPASATAHRPELAGRSFEAMGVSLVVHPHNPYVPTSHANVRFFIAEKPGADPVWWFGGGFDLTPFYGFEEDAIHWHRTARDLCLPFGEDVYPRYKKWCDEYFYLKHRNEQRGIGGLFFDDLNTPDFDRCFAFMQAVGKGYTDAYLPIVERRKAMAYGERERNFQLYRRGRYVEFNLVWDRGTLFGLQTGGRTESILMSMPPLVRWEYDYQPKDGSPEAALSEFIKVRDWV", "soluble on expression in E. coli": "soluble"}, {"sequence": "MGSSHHHHHHSSGRENLYFQGHMNPNFLDFEQPIADLQAKIEELRLVGNDNALNISDEISRLQDKSKALTENIFGNLSSWQIAQLARHPKRPYTLDYIGYLFSDFEELHGDRHFADDPAIVGGVARLDGSPVMVIGHQKGREVREKVRRNFGMPRPEGYRKACRLMEMAERFKMPILTFIDTPGAYPGIDAEERGQSEAIAWNLRVMARLKTPIIATVIGEGGSGGALAIGVCDQLNMLQYSTYSVISPEGCASILWKTAEKAPEAAEAMGITAERLKGLGIVDKVIDEPLGGAHRDPASMAESIRGELLAQLKMLQGLEMGELLERRYDRLMSYGAP", "soluble on expression in E. coli": "soluble"}]}]}
